The text below walks through data of PMC4098657 (Molecular microbiology, 2009).

First the molecules themselves.
B1: AglZ^Rec (domain or fragment, M. xanthus, UniProt Q1D823 2-240, looked up)
chain: ERRVLIVESEHDFALSMATVLKGAGYQTALAETAADAQRELEKRRPDLVVLRAELKDQSGFVLCGNIKKGKWGQNLKVLLLSSESGVDGLAQHRQTPQAADGYLAIPFEMGELAALSHGIVPPGTDDTGASLDAALNGTREAPPPMPPSLKAAAGGPPKLPKRERRSAMTEEDRAFLDRTFQSIADRKAELLAESRQLKRPPPRRELMGTPEGKIQILRDELKTREAQLARLSEIWNVR
B2: FrzCD^N-ter (domain or fragment, M. xanthus, UniProt P43500 2-135, looked up)
chain: SLDTPNEKPAGKARARKAPASKAGATNAASTSSSTKAITDTLLTVLSGNLQARVPKELVGESGVELAHLLNQVLDQFAASEHRKHVAAQEIDQALDALIGLVREGDLSRWNTTTEDPQLGPLLEGFGKVIETLR
B3: FrzCD^C-ter (domain or fragment, M. xanthus, UniProt P43500 132-417, looked up)
chain: ETLRTFVREINEAALRLSSSANQVLAASTQHETSSTEQAAAIHETTATMEELKHASAQIAENAGSVARVAEETLGAARAGRGAIGEFIQAMQQIRSDGVAVADSIAKLSKRVERIGTVVEVIDEIADRSDLLALNAALEGSRAGEAGKGFSIVAAEMRRLAENVLDSTKEIKNLITEIREATAAAAGAAEASKSATESGEKLGAVAAQAVEGILAGVQETSDAARVINLATQQQRTATEQVVASMAEIEDVTRQTTQASKQATGAAAELTQLAGRLAELIKRFKAD

Common to all, as to experiment: cross-linking
In data set [1] the target is T1, His-tagged FrzCD full-length protein (M. xanthus, UniProt P43500 1-417).
T1 sequence (looked up): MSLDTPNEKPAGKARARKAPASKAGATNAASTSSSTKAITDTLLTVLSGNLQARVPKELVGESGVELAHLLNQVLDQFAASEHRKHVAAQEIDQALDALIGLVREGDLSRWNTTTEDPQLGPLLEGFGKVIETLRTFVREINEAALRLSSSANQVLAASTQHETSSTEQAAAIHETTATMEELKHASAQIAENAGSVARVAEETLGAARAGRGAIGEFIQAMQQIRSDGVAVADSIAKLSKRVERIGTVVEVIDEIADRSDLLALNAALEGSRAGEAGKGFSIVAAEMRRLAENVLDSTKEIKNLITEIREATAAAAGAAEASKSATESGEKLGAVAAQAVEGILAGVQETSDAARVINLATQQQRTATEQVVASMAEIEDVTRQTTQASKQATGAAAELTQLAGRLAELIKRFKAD

For the data set “AglZ^Rec”, the target named is B1.
The data set “cross-linking” deals with the molecule itself.

For B1, in data set [1], the binding result is listed as “binds”.

Take B2: the binding result with AglZ^Rec and in the data set “cross-linking” was “binds” throughout.

As to B3, in “cross-linking”, the binding result was “binds”.
